Test results reported in patent US20180256644A1.
Substitutions are numbered along the chain they refer to. Names and notes keep the numbering of the source. Blank lines part the entries; values can stand above or below the molecule they belong to.

Columns and labels:
[1] = target: human CD28 (full-length, expressed on transfected Expi293F cells) (human) (UniProt P10747); assay: flow cytometry, transfected Expi293 cells
[2] = target: human PD-L1 (full-length, expressed on transfected Expi293F cells) (human) (UniProt Q9NZQ7); assay: flow cytometry, transfected Expi293 cells
[3] = target: human CD28 (full-length, expressed on transfected Expi293F cells) (human) (UniProt P10747); assay: flow cytometry; ratio to WT parental stack
[4] = target: human PD-L1 (full-length, expressed on transfected Expi293F cells) (human) (UniProt Q9NZQ7); assay: flow cytometry; ratio to WT parental stack
[5] = target: human PD-L1, full-length, expressed on Expi293F cells (human) (UniProt Q9NZQ7); assay: flow cytometry, Expi293 cells expressing human PD-L1
[6] = target: human CTLA4, full-length, expressed on Expi293F cells (human) (UniProt P16410); assay: flow cytometry, Expi293 cells expressing human CTLA-4
Sequence of UniProt P16410 (P16410 36-223): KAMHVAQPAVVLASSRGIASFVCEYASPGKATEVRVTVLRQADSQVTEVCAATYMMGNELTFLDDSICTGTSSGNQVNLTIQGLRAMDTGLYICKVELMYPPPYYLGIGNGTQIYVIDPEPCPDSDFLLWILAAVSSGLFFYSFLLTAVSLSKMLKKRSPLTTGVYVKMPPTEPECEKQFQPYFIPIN

[7] = target: human CD28 (full-length, expressed on transfected Expi293F cells) (human) (UniProt P10747); assay: flow cytometry; ratio to WT ICOSL ECD-Fc

Molecule: CD80 WT / CD80 WT stacked IgV-Fc (Fc fusion)
- MFI [1]: 1630 MFI

Molecule: NKp30 WT / CD86 WT stacked IgV-Fc (Fc fusion)
- MFI [1]: 1690 MFI

Molecule: CD80 I67T/L70Q/A91G/T120S / CD80 E88D/K89R/D90K/A91G/F92Y/K93R stacked IgV-Fc (Fc fusion)
- MFI [1]: 938 MFI
- WT parental MFI ratio [3]: 0.57

Molecule: NKp30 WT / ICOSL WT stacked IgV-Fc (Fc fusion)
- MFI [1]: 6340 MFI

Molecule: CD80 WT / ICOSL WT stacked IgV-Fc (Fc fusion)
- MFI [1]: 1230 MFI
- MFI [2]: 2660 MFI

Molecule: CD86 Q35H/H90L/Q102H / CD80 A12T/H18L/N43V/F59L/E77K/P109S/I118T stacked IgV-Fc (Fc fusion)
- MFI [2]: 2110 MFI
- WT parental MFI ratio [4]: 1.39

Molecule: CD80 variant A91G/S103P ECD-Fc fusion
- MFI [5]: 9 MFI
- MFI parental ratio (fold of WT CD80) [5]: 0.13

B1: CD80 variant L70Q/A91G/T110A/T120S/T130A ECD-Fc fusion (Fc fusion)
chain: VIHVTKEVKEVATLSCGHNVSVEELAQTRIYWQKEKKMVLTMMSGDMNIWPEYKNRTIFDITNNLSIVIQALRPSDEGTYECVVLKYEKDGFKREHLAEVTLSVKADFPAPSISDFEIPSSNIRRIICSASGGFPEPHLSWLENGEELNAINTTVSQDPETELYAVSSKLDFNMTTNHSFMCLIKYGHLRVNQTFNWNTTKQEHFPDNAAAEPKSSDKTHTCPPCPAPELLGGPSVFLFPPKPKDTLMISRTPEVTCVVVDVSHEDPEVKFNWYVDGVEVHNAKTKPCEEQYGSTYRCVSVLTVLHQDWLNGKEYKCKVSNKALPAPIEKTISKAKGQPREPQVYTLPPSREEMTKNQVSLTCLVKGFYPSDIAVEWESNGQPENNYKTTPPVLDSDGSFFLYSKLTVDKSRWQQGNVFSCSVMHEALHNHYTQKSLSLSPGK
- MFI [6]: 14 MFI
- MFI parental ratio (fold of WT CD80) [6]: 0.07

B3: ICOSL variant ECD-Fc F120S/Y152H/N201S (Fc fusion)
chain: DTQEKEVRAMVGSDVELSCACPEGSRFDLNDVYVYWQTSESKTVVTYHIPQNSSLENVDSRYRNRALMSPAGMLRGDFSLRLFNVTPQDEQKFHCLVLSQSLGFQEVLSVEVTLHVAANSSVPVVSAPHSPSQDELTFTCTSINGYPRPNVHWINKTDNSLLDQALQNDTVFLNMRGLYDVVSVLRIARTPSVNIGCCIESVLLQQNLTVGSQTGNDIGERDKITENPVSTGEKNAATAAAEPKSSDKTHTCPPCPAPELLGGPSVFLFPPKPKDTLMISRTPEVTCVVVDVSHEDPEVKFNWYVDGVEVHNAKTKPCEEQYGSTYRCVSVLTVLHQDWLNGKEYKCKVSNKALPAPIEKTISKAKGQPREPQVYTLPPSREEMTKNQVSLTCLVKGFYPSDIAVEWESNGQPENNYKTTPPVLDSDGSFFLYSKLTVDKSRWQQGNVFSCSVMHEALHNHYTQKSLSLSPGK
- MFI parental ratio [7]: 0.89

Further lines, results first:

- MFI [2]: 2970 MFI
Molecule: ICOSL WT / CD80 WT stacked IgV-Fc (Fc fusion)

- MFI [2]: 2080 MFI
Molecule: CD80 WT / CD86 WT stacked IgV-Fc (Fc fusion)

- MFI [1]: 7920 MFI
Molecule: ICOSL WT / Nkp30 WT stacked IgV-Fc (Fc fusion)

- MFI [5]: 9 MFI
- MFI parental ratio (fold of WT CD80) [5]: 0.13
B2: CD80 variant V20L/L70Q/A91S/T120S/T130A ECD-Fc fusion (Fc fusion)
chain: B1 chain with V20L, G91S, A110T
